{
  "source": "patent US20240093191A1",
  "about": "“COMPOSITIONS AND METHODS FOR TREATING DISEASE ASSOCIATED WITH DUX4 OVEREXPRESSION” (RESEARCH INSTITUTE AT NATIONWIDE CHILDREN'S HOSPITAL, priority 2021, published 2024)",
  "molecules": {"B1": {"name": "U6.mi405G: mi405 construct with altered flanking sequences (nucleic acid)", "DNA": "ACGCCGCCATCTCTAGGCCCGCGCCGGCCCCCTCGCACAGACTTGTGGGAGAAGCTCGGCTACTCCCCTGCCCCGGTTAATTTGCATATAATATTTCCTAGTAACTATAGAGGCTTAATGTGCGATAAAAGACAGATAATCTGTTCTTTTTAATACTAGCTACATTTTACATGATAGGCTTGGATTTCTATAAGAGATACAAATACTAAATTATTATTTTAAAAAACAGCACAAAAGGAAACTCACCCTAACTGTAAAGTAATTGTGTGTTTTGAGACTATAAATATCCCTTGGAGAAAAGCCTTGTTTGACCGTTTAAACTCGAGTGAGCGATCCAGGATTCAGATCTGGTTTCTGTAAAGCCACAGATGGGAAACCAGATCTGAATCCTGGACTGCCTACTAGAGAATTCTTCGATTCTGCTTTTTT"}, "B2": {"name": "U6.mi405H: mi405 construct with altered flanking sequences (nucleic acid)", "DNA": "ACGCCGCCATCTCTAGGCCCGCGCCGGCCCCCTCGCACAGACTTGTGGGAGAAGCTCGGCTACTCCCCTGCCCCGGTTAATTTGCATATAATATTTCCTAGTAACTATAGAGGCTTAATGTGCGATAAAAGACAGATAATCTGTTCTTTTTAATACTAGCTACATTTTACATGATAGGCTTGGATTTCTATAAGAGATACAAATACTAAATTATTATTTTAAAAAACAGCACAAAAGGAAACTCACCCTAACTGTAAAGTAATTGTGTGTTTTGAGACTATAAATATCCCTTGGAGAAAAGCCTTGTTTGACCGTTTAAACTCGAGTGAGCGATCCAGGATTCAGATCTGGTTTCTGTAAAGCCACAGATGGGAAACCAGATCTGAATCCTGGACTGCCTACTAGAGCGCACGCCAGTTTTTT"}, "B3": {"name": "U6.mi405F: mi405 with one G at 5' end and 16 mer 3' flanking sequence with single CNNC motif (nucleic acid)", "DNA": "ACGCCGCCATCTCTAGGCCCGCGCCGGCCCCCTCGCACAGACTTGTGGGAGAAGCTCGGCTACTCCCCTGCCCCGGTTAATTTGCATATAATATTTCCTAGTAACTATAGAGGCTTAATGTGCGATAAAAGACAGATAATCTGTTCTTTTTAATACTAGCTACATTTTACATGATAGGCTTGGATTTCTATAAGAGATACAAATACTAAATTATTATTTTAAAAAACAGCACAAAAGGAAACTCACCCTAACTGTAAAGTAATTGTGTGTTTTGAGACTATAAATATCCCTTGGAGAAAAGCCTTGTTTGCTCGAGTGAGCGATCCAGGATTCAGATCTGGTTTCTGTAAAGCCACAGATGGGAAACCAGATCTGAATCCTGGACTGCCTACTAGTAATTCTTCGATTCTGCTTTTTT"}},
  "key": {"[1]": {"system": "DUX4 ORF (RenLuc-DUX4 ORF)", "experiment": "Dual-luciferase assay, RenLuc-DUX4 ORF reporter co-transfected with miDUX4 plasmids in HEK293 cells", "type": "cell-based, human", "details": "for reduction of Renilla luciferase activity: normalized to U6.miGFP", "method_in_brief": "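HEK293 cells were co-transfected by lipofection with a psiCheck2 reporter carrying the DUX4 ORF as the Renilla luciferase 3′UTR and U6-driven miDUX4 plasmids, at increasing reporter:miRNA molar ratios. Renilla/Firefly ratio was read 24 h or 48 h post-transfection, with Firefly as transfection normaliser. Values are means ± SEM of triplicates over 3 experiments.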"}, "[2]": {"system": "DUX4-induced muscle toxicity", "experiment": "mi405 constructs (scAAV6) co-injected with AAV.CMV.DUX4-FL in mouse TA, H&E", "type": "in vivo, mouse (C57BL/6)", "details": "scAAV6, 5e09 DRP co-injected with 5e09 DRP AAV.CMV.DUX4-FL, 8 weeks", "protocol": "AAV Vector Delivery to Mice. (See also FIGS. 15A-B and 32A-B.) For determining bioactivity, 6- to 9-week-old C57BL/6 male and female mice received direct 35 μL IM injections into the TA. Mice received adeno-associated virus scAAV6.CMV.DUX4-FL at 5×10^9 DNase-resistant particles (DRP) co-injected with scAAV6.CMV.eGFP at 1×10^10 DRP, and a contralateral co-injection of scAAV6.CMV.DUX4-FL at 1×10^9 DRP or 5×10^9 DRP and scAAV6.U6.mir-675 at 5×10^10 DRP. To test toxicity of mir-675, the tibialis anterior (TA) was intramuscularly injected with increasing doses of scAAV6.U6.mir-675 at 5×10^10 DRP and 1×10^11 DRP, and injected contralateral TA with saline. To test mi405 toxicity, the TA was intramuscularly injected with 5×10^8 DRP, 5×10^9 DRP and 5×10^10 DRP of scAAV6.U6.mi405F, scAAV6.U6.mi405G or scAAV6.U6.mi405H and injected contralateral TA with saline. To test mi405 inhibition efficiency, the TA was co-injected with scAAV6.CMV.DUX4-FL at 5×10^9 DRP and scAAV6.U6.mi405F, G or H at 5×10^8 DRP, 5×10^9 DRP or 5×10^10 DRP. For this, a contralateral injection of either scAAV6.U6.mi405F, G or H or of scAAV6.CMV.DUX4-FL at 5×10^9 DRP was carried out. For mi405, all injections were compared to scAAV6.U6.mi405. Muscles were harvested at 2, 4 or 8 weeks post-injection. All animal studies were performed according to the NIH Guide for the Care and Use of Laboratory Animals.\nHistology. (See also FIGS. 15A-B and 32A-B.) Dissected TA muscles were placed in O.C.T. Compound (Tissue-Tek) and frozen on liquid nitrogen-cooled isopentane. Cryosections were cut at 10 μm and then stained with H&E following standard protocols [Harper et al., Nat Med (2002) 8(3):253-61].\nU6.mi405, U6.mi405F, U6.mi405G and U6.mi405H were co-injected using scAAV6 with AAV.CMV.DUX4-FL at equivalent doses (5e09 DNase Resistant Particles (DRP)) in the TA of C57BL/6 mice. This experiment was performed to investigate the efficiency of the four mi405 constructs to eliminate DUX4-induced muscle toxicity in vivo at doses equivalent to that of AAV.CMV.DUX4-FL. Previously, Wallace et al. [Wallace et al, Ann. Neurol. […]"}, "[3]": {"details": "DUX4:mi405 molar ratio 2 to 1, HEK293, 24 h"}, "[4]": {"details": "DUX4:mi405 molar ratio 12 to 1, HEK293, 24 h"}},
  "data": [
    {"molecule": "B1", "values": [
      {"measurement": "reduction of Renilla luciferase activity", "setting": "[1]; [3]", "value": "81±1", "unit": "%"},
      {"measurement": "additional reduction of Renilla luciferase activity compared to U6.mi405F", "setting": "[1]; DUX4:mi405 molar ratio 12 to 1", "value": "26±5", "unit": "%"},
      {"measurement": "reduction of Renilla luciferase activity", "setting": "[1]; [4]", "value": "59±2", "unit": "%"},
      {"measurement": "efficiency in eliminating DUX4-induced muscle toxicity compared to mi405", "setting": "[2]", "value": "more efficient than mi405"}
    ]},
    {"molecule": "B2", "values": [
      {"measurement": "reduction of Renilla luciferase activity", "setting": "[1]; [3]", "value": "80±1", "unit": "%"},
      {"measurement": "additional reduction of Renilla luciferase activity compared to U6.mi405F", "setting": "[1]; DUX4:mi405 molar ratio 12 to 1", "value": "25±6", "unit": "%"},
      {"measurement": "reduction of Renilla luciferase activity", "setting": "[1]; [4]", "value": "58±2", "unit": "%"},
      {"measurement": "efficiency in eliminating DUX4-induced muscle toxicity compared to mi405", "setting": "[2]", "value": "more efficient than mi405"}
    ]},
    {"molecule": "B3", "values": [
      {"measurement": "reduction of relative Renilla luciferase activity", "setting": "[1]; 1:4 DUX4:mi405 molar ratio, HEK293, 24 h, normalized to miGFP", "value": "89±1", "unit": "%"},
      {"measurement": "reduction of Renilla luciferase activity", "setting": "[1]; [3]", "value": "77±1", "unit": "%"},
      {"measurement": "decrease of relative Renilla luciferase activity compared to U6.mi405", "setting": "[1]; DUX4:mi405 molar ratio 8:1, 24 h", "value": "48±6", "unit": "%"},
      {"measurement": "reduction of Renilla luciferase activity", "setting": "[1]; [4]", "value": "45±4", "unit": "%"},
      {"measurement": "decrease of relative Renilla luciferase activity compared to U6.mi405", "setting": "[1]; DUX4:miDUX4 molar ratio 1:1", "value": "33±2", "unit": "%"},
      {"measurement": "decrease of relative Renilla luciferase activity compared to U6.mi405", "setting": "[1]; DUX4:miDUX4 molar ratio 1:2", "value": "32±2", "unit": "%"},
      {"measurement": "decrease of relative Renilla luciferase activity compared to U6.mi405", "setting": "[1]; DUX4:miDUX4 molar ratio 1:3", "value": "34±1", "unit": "%"},
      {"measurement": "decrease of relative Renilla luciferase activity compared to U6.mi405", "setting": "[1]; DUX4:miDUX4 molar ratio 1:4", "value": "32±1", "unit": "%"},
      {"measurement": "relative Renilla luciferase activity reached", "setting": "[1]; DUX4:miDUX4 molar ratio 8:1", "value": "38±2", "unit": "%"},
      {"measurement": "more efficient than U6.mi405 in reducing relative Renilla luciferase activity", "setting": "[1]; DUX4:miDUX4 molar ratio 40:1", "value": "13±2", "unit": "%"},
      {"measurement": "efficiency in eliminating DUX4-induced muscle toxicity compared to mi405", "setting": "[2]", "value": "no enhanced inhibition efficiency in vivo when compared to mi405"}
    ]}
  ]
}
